Source: the Human Domainome abundance scans (Beltran et al. 2025)

B1: POU domain, class 3, transcription factor 3, residues 408 to 463; numbered along this chain, P20264 (parent)
chain: KKRTSIEVSVKGALESHFLKCPKPSAQEITNLADSLQLEKEVVRVWFCNRRQKEKR

Variants of: B1
Assay: abundance fitness (aPCA) (normalised: wild type 0, dead -1); higher = more abundant; growth selection in yeast, the domain comes from the species named
Settings: Homo sapiens

Abundance fitness of substitutions, site by site:
V10: A -0.005, G -0.241, Y -0.129, N -0.148, M -0.192, I -0.066, P -0.472, F -0.291, L -0.042, S -0.153, E 0.154, R -0.108, D 0.176, K -0.032, Q 0.07, C -0.108, T -0.023, H 0.072
I6: N -0.234, E -0.091, K -0.051, V -0.093, F -0.272, A -0.015, Y -0.189, G -0.071, S -0.077, R -0.108, P 0.01, D -0.135, W -0.124, Q -0.084, T 0.058
L19: V -0.075, C -0.138, E -0.086, R -0.024, T -0.155, P -1.09, N 0.014, M 0.033, A -0.029, H -0.173, K -0.057, S -0.047, F -0.346, D -0.191, Q 0.002, W -0.339, Y -0.288, G -0.238
F18: C -0.935, S -0.902, H -0.932, N -1.18, I -0.973, R -0.935, Y 0.026, A -0.84, L -1.01, K -0.925, Q -0.703, V -0.859, D -0.568, E -0.875, W -0.5, T -0.922
E15: M -0.713, L -0.599, K -0.582, G -1.02, N -1.02, R -1.03, S -1, D -0.753, A -0.858, W -0.593, V -0.698
L14: S -0.87, F -0.899, E -1.11, Y -0.815, C -0.662, W -1.01, Q -0.942, V -0.899, N -1.01, G -0.958, I -0.45, T -0.839, D -0.697, P -1, A -0.8
H17: F -0.104, P -0.807, M -0.147, I -0.219, L -0.188, A -0.055, W -0.048, E -0.176, S -0.039, G -0.683, R -0.444, T -0.234, C -0.201, N -0.189, V -0.069, Y 0.041, Q -0.134
K11: W -0.116, I -0.006, Y 0.067, G -0.135, F -0.186, R -0.045, V -0.085, C -0.141, P -0.024, A -0.099, Q -0.015, N -0.27, M -0.006, H -0.04
S5: H 0.175, M 0.125, K 0.097, C 0.128, T 0.135, D -0.064, G -0.008, A 0.086, N 0.193, Q 0.203, Y 0.206, P 0.132, E -0.047, W -0.255
S9: R -0.018, I -0.368, H 0.092, A 0.054, E 0.072, Q 0.067, Y -0.015, G 0.027, V -0.132, T -0.051, N 0.166, F -0.285, D 0.038, P -0.068, C -0.247, W -0.192, L -0.206, K 0.01, M -0.305
K20: I -0.191, W -0.421, Y -0.335, R -0.05, P -0.912, C -0.465, Q 0.054, M -0.187, D -0.197, T -0.256, G -0.366, A -0.218, S -0.233, F -0.438, L -0.195, N -0.109, V -0.127, H -0.279
E7: K 0.028, D 0.05, F -0.263, T 0.134, V -0.197, L -0.09, G 0.013, R -0.057, M -0.035, Y -0.3, W -0.436, H -0.016, A -0.096, I -0.157, N 0.063, Q -0.035, S 0.144, P 0.167
T4: F -0.116, R -0.26, L -0.093, W -0.572, P -0.257, H -0.405, K -0.142, Y -0.19, G -0.077, M -0.064, I -0.014, C -0.205, Q 0.005, E -0.082, D -0.279, V -0.095, S -0.077
S16: E 0.006, G -0.059, I -0.361, M -0.076, R -0.011, H -0.287, L -0.106, N -0.044, W -0.502, F -0.232, T -0.067, D 0.026, A -0.026, C -0.086, P -0.441, V -0.261, K 0.036, Q 0.012, Y -0.004
A13: G -0.46, Y -0.17, F -0.191, S -0.079, E -0.081, T -0.058, Q -0.099, V 0.111, L -0.093, W -0.344, I -0.046, P -0.353, N -0.274, M -0.096, D -0.355, R 0.018, C -0.199
P22: L -0.732, S -0.35, R -0.398, K -0.432, V -0.641, G -0.19, I -0.572, Y -0.383, H -0.448, A -0.121
C21: L -0.611, F -0.407, P -0.719, S 0.041, I -0.73, Y -0.383, D -0.094, V -0.249, R -0.501, E 0.048, H -0.031, Q 0.084, G -0.468, M -0.314, K -0.408, T -0.094
G12: W -0.25, E 0.111, N 0.11, H -0.009, F -0.054, K -0.035, I 0.051, L 0.104, Q -0.094, T 0.078, D 0.048, V 0.211, Y 0.103, P -0.056, R 0.007, M 0.161, C 0.096, A 0.227
V8: I 0.1, T 0.161, P 0.195, S 0.218, M 0.098, H -0.052, K 0.068, G 0.055, N 0.039, Y -0.369, R 0.001, W -0.141, A -0.032, L 0.1, F 0.04, D -0.075, C -0.171, E 0.088
P24: A -0.778, I -0.731, F -0.827, K -0.93, D -0.802, E -0.871, C -0.83, G -1.05
K23: M -0.031, F -0.034, S 0.033, I -0.065, N 0.248, A -0.001, R -0.049, Y -0.05, G -0.252, L -0.057, W -0.084, D 0.114, T -0.052, P -0.724, Q -0.192, H -0.127, V -0.082, E -0.028
